# Assay results published in article PMC314469, “Protein Interaction Networks by Proteome Peptide Scanning” (PLoS Biology, 2004).
# T1: BOI2 SH3 domain (Saccharomyces cerevisiae)
# T1 chain: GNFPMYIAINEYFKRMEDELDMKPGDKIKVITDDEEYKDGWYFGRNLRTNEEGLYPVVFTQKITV
# T2: RVS167 SH3 domain (Saccharomyces cerevisiae)
# T2 chain: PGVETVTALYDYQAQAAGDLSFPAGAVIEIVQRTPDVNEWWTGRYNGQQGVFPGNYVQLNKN
# T3: YFR024C SH3 domain (Saccharomyces cerevisiae)
# T3 chain: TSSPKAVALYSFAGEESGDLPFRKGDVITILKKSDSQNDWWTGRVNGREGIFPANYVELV
# T4: YSC84 SH3 domain (Saccharomyces cerevisiae)
# T4 chain: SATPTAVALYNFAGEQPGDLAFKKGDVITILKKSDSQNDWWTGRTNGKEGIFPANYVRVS
# T5: GST-Abp1 SH3 domain (S. cerevisiae), P15891
# T5 chain: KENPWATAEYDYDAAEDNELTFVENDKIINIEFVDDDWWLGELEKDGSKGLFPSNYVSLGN
# Legend:
# Assay in all cases: SPR
# Conditions in all cases: modification not given
# [1] = target: T1, BOI2 SH3 domain (Saccharomyces …)
# [2] = target: T2, RVS167 SH3 domain (Saccharomyces …)
# [3] = target: T3, YFR024C SH3 domain (Saccharomyces …)
# [4] = target: T4, YSC84 SH3 domain (Saccharomyces …)
# [5] = target: T5, GST-Abp1 SH3 domain (S. cerevisiae), …
Binder,Kd [1] [µM],Kd [2] [µM],Kd [3] [µM],Kd [4] [µM],Kd [5] [µM]
PQQNRPLPQLPNRN,> 100,32,,,
DIKTRSVPKIPSIE [DEM1 peptide …],> 100,> 100,> 100,> 100,
NQPDLPPRKIMIP [YBR239C peptide …],> 100,39,22,16,> 100
ASTKPEKPPVVKKP [INP52 peptide …],,,,,> 100
RPLPQLPNRNNRPV,> 100,,8.9,9.6,> 100
RAVPILPPRNNVEP [YBR108W peptide …],> 100,39,,13,
